# Experimental data: article doi:10.1101/2020.04.09.012385
# B1: mR6ii (dsDNA)
# DNA 1: GATCCCGCCCCAATAGGTACTAATGACTGCCTGGGTGTCTACACTCACCG
# DNA 2: CGGTGAGTGTAGACACCCAGGCAGTCATTAGTACCTATTGGGGCGGGATC
# Target: mouse DLX2 (Mus musculus, UniProt P40764 1-332)
# Assay: EMSA
# mouse DLX2, sequence (P40764 whole entry): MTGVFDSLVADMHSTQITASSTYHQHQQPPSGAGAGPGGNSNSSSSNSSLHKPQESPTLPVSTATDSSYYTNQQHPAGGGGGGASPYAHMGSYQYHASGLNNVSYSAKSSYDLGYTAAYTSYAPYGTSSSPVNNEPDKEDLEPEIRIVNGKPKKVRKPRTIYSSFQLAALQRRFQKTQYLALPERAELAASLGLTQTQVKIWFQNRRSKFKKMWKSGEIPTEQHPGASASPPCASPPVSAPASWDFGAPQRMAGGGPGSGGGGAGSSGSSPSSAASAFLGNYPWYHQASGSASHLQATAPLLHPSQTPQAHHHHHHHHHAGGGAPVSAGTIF
binder,measurement,value
B1,binding result,no binding
